# Values joined by “and” are separate entries in the source; they are usually repeats but may differ in a detail not shown here. Identical values can stand only once.
# T1: Ruminococcus flavefaciens strain 17 (Siijpesteijn 1948) xylose isomerase, native (XI-R), SEQ ID NO: 31 (gene SEQ ID NO: 29/30) (Ruminococcus flavefaciens, UniProt Q9S306)
# T1 construct: made in house; host or cells: Saccharomyces cerevisiae BY4742 (p426GPD); soluble whole cell extract, not purified
# T1 sequence (Q9S306 1-438): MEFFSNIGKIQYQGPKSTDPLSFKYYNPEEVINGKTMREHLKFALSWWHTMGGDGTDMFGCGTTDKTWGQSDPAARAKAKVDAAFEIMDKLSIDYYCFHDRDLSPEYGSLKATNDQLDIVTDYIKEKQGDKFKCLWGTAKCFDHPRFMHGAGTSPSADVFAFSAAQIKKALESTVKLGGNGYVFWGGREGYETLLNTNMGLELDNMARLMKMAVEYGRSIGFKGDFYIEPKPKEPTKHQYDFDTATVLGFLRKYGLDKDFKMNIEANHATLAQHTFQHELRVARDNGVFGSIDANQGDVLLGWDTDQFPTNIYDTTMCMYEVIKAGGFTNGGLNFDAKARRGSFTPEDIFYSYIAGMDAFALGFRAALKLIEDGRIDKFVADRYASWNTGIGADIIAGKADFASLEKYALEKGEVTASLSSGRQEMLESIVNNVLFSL
# T2: Ruminococcus flavefaciens xylose isomerase, codon-optimized gene variant (XI-R-COOP), gene SEQ ID NO: 33 (Ruminococcus flavefaciens, UniProt Q9S306)
# T2 sequence (Q9S306 1-438): T1 sequence (Q9S306 1-438)
# B1: Ruminococcus flavefaciens: native xylose isomerase from Ruminococcus flavefaciens strain 17 (SEQ ID NO: 31) (protein, listed as Ruminococcus flavefaciens)
# chain: T1 sequence (Q9S306 1-438)
# Experiments:
# [1] = biological target: T3, Piromyces strain E2 xylose isomerase, native (XI-P), SEQ ID NO: 35 (gene SEQ ID NO: 34) (Piromyces sp. E2, UniProt A0ACD6B9F5); experiment: Xylose isomerase kinetics (SDH-coupled, NADH, A340), with and without xylitol; format: biochemical; settings: about 0 to about 50 mM xylitol; pH 7.5, about 30° C.
# T3 construct: soluble whole cell extract; SDH-coupled
# Description: (§1) About 20 μg of soluble whole cell extract was incubated in the presence of 100 mM Tris, pH 7.5, 10 mM MgCl2, 0.15 mM NADH (Sigma, St. Louis, Mo.), and about 2 U sorbitol dehydrogenase (Roche) at about 30° C. […] A Beckman DU-800 was utilized with an Enzyme Mechanism software package (Beckman Coulter, Inc.), and the change in the A340 was monitored for 2-3 minutes.
# (§2) Approximately 20 μg of soluble whole cell extract from each transformed cell line, prepared using Y-PER plus reagent as described above, was incubated in a solution containing about 100 mM Tris, pH 7.5, 10 mM MgCl ? 2, 0.15 mM NADH (Sigma, St. Louis, Mo.), and 2 U Sorbitol Dehydrogenase (SDH) (Roche, Indianapolis, Ind.) at about 30° C. […] A Beckman DU-800 spectrophotometer was utilized with an Enzyme Mechanism software package (Beckman Coulter, Inc, Brea, Calif.), and the change in the A340 was monitored for 2-3 minutes. […]
# (§3) Approximately 20 μg of soluble whole cell extract from each transformed cell line was prepared using Y-PER plus reagent as described above was incubated in a solution containing about 100 mM Tris, pH 7.5, 10 mM MgCl ? […] A Beckman DU-800 spectrophotometer was utilized with an Enzyme Mechanism software package (Beckman Coulter, Inc, Brea, Calif.), and the change in the A340 was monitored for 2-3 minutes.
# [2] = biological target: T1, Ruminococcus flavefaciens strain 17 (Siijpesteijn 1948) xylose isomerase, native (XI-R), SEQ ID NO: 31 (gene SEQ ID NO: 29/30); experiment: as above; format: biochemical; settings: about 0 to about 50 mM xylitol; pH 7.5, about 30° C.
# Description: as §1, §2, §3
# [3] = biological target: T2, Ruminococcus flavefaciens xylose isomerase, codon-optimized gene variant (XI-R-COOP), gene SEQ ID NO: 33; experiment: as above; format: biochemical; settings: xylose about 40 to about 500 mM; pH 7.5, about 30° C.
# Description: An additional variant of the native R. flavefaciens xylose isomerase gene (XI-R-COOP) was prepared in which all of the codons were optimized for expression in Saccharomyces cerevisiae. This variant gene was synthesized by IDT DNA Inc. and the sequence is set forth below as SEQ ID NO: 33.
# [4] = system: Ruminococcus flavefaciens FD-1 (Ruminococcus_FD1) xylose isomerase, SEQ ID NO: 110; experiment: Kinetics of additional xylose isomerase candidates (Km and specific activity); format: biochemical; settings: xylose 40 to 500 nM; crude S. cerevisiae extract
# From the text: The results are show in FIG. 25.
# [5] = system: xylose isomerase activity; experiment: Heterologous xylose isomerase expression in engineered yeast (active yes/no); settings: xylose isomerase of the donor organism expressed in engineered yeast (S. cerevisiae)
# xylose [6] = experiment: In vivo evaluation of xylose isomerase constructs in C5 strain: xylose fermentation, aerobic then anaerobic (ethanol, xylose, glucose, OD600, dry cell weight); format: cell-based, Saccharomyces cerevisiae; settings: final sample at 372 hours
# From the text: The engineered strain was designed to include the following genetic modifications: the native Pho13 gene (alkaline phosphatase specific for p-nitrophenyl phosphate) was disrupted by inserting a construct containing the native TLK1 gene (Transketolase-1); the native aldose reductase gene (Gre3) was disrupted by inserting a construct containing the native high-affinity glucose transporter-7 gene (HXT7); the native glucose-repressible alcohol dehydrogenase II gene (adh2) was disrupted by inserting a construct containing the native xylulokinase gene (XYLK); and the native orotidine-5′ phosphate decarboxylase gene (ura3) was disrupted by inserting a construct containing the native transaldolase 1 gene (TAL1). The resulting strain had the following genotype: pho13::TKL1, gre3::HXT7, adh-2::XYLK, ura3::TAL1.
# The C5 strain was transformed using standard protocols with either p426GPD (as a control) or the chimeric variants XI-R, XI-Rp5, XI-Rp10, or XI-Rp15. The transformed cells were grown on SC-glucose minus uracil initially and then passaged onto SC-xylose minus uracil. Cultures of each of the above constructs were made in SC-xylose minus uracil—and grown for one week. The cultures were grown aerobically at 30° C. with 250 rpm agitation, 1 vvm sparge of process air, 21% O2. The pH was controlled at about 5.0 with 1N NaOH. […] At 24 hours elapsed fermentation time the fermentation was switched to anaerobic conditions. […] Oxygen was purged with 100% N2 sparge at 1 vvm until percent O2 was below 1%. Aeration was then set at 0.25 vvm 100% N2.
# The final sample also measured biomass by dry cell weight.
# xylose [7] = experiment: Industrial yeast strain BF903 with Ruminococcus xylose isomerase: aerobic growth and xylose consumption on YP-xylose; format: cell-based, Saccharomyces cerevisiae; settings: commercial yeast strain BF903, YP-xylose, 30° C., 7 days, FIG. 11
# Description: A commercially available industrial diploid strain of Saccharomyces cerevisiae (strain BF903; “Stillspirits” triple distilled yeast, Brewcraft, Albany, New Zealand; available at Hydrobrew, Oceanside, Calif.) was obtained and was made competent for transformation using known yeast cell transformation procedures. […] Transformed yeast containing each construct were grown overnight aerobically in a 15 ml culture tube on YPD media containing 2% glucose. After about 24 hours, about 25 ml of YP media containing 2% glucose and 100 μg/ml G418 was seeded with the cells at an initial OD600 of 0.5 in a 250 ml Erlenmeyer flask and grown aerobically at 30° C. The cultures were then passaged once every 7 days into fresh media, also at an initial OD600 of 0.5.
# Measurements were taken of the cell optical density (OD600) to assess cell density and plated onto YPD with 100 μg/ml G418 to ensure that the plasmid was stable. […] The strains were then grown overnight in YPD (with 100 μg/ml G418) and used to inoculate about 50 ml YP-xylose (with 100 μg/ml G418) into disposable 250 ml Erlenmeyer flasks with vented caps at an initial OD600 of about 1. The cultures were allowed to grow aerobically at 30° C. at 200 rpm for 7 days.
# xylose [8] = experiment: Industrial yeast strain BF903 with Ruminococcus xylose isomerase: sealed serum bottles on YP plus xylose (xylose utilization, ethanol, cell growth); format: cell-based, Saccharomyces cerevisiae; settings: FIG. 12
# Description: The serum bottles were sealed with a butyl rubber stopper to prevent air exchange. As a result, the cultures became anaerobic once the available oxygen in the serum bottle was utilized. In general, anaerobiosis (e.g., the onset of anaerobic conditions) occurred a few hours after the culture was inoculated. Xylose utilization, ethanol production and cell growth were measured every twenty four hours.
# T3 sequence (A0ACD6B9F5 1-437): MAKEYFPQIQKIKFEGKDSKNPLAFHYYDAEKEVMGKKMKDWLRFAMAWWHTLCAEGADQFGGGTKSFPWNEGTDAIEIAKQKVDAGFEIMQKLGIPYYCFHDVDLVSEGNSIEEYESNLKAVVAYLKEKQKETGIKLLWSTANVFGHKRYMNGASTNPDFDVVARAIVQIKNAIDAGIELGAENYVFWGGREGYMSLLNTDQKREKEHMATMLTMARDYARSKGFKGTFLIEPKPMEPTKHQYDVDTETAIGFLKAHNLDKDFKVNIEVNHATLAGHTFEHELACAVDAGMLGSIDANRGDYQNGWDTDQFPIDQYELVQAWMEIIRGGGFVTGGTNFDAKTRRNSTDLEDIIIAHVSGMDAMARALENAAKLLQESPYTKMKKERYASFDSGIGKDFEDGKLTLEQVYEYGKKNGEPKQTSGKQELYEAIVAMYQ
molecule,measurement,setting,value
OC[C@@H](O)[C@H](O)[C@@H](O)CO [xylitol],Ki,[1],4.79 mM
same,Ki,[2],43.6 mM
OC1OC[C@@H](O)[C@H](O)[C@H]1O (some centres unmarked) [xylose],Km,[3],100 mM
same,Km,[4],71.9 mM
B1,Active? (yes/no),[5],Yes
same,Glucose,xylose [6],0 g/L
same,Ethanol,xylose [6]; listed as XI-R,15.65 g/L and 15.5 g/L
same,Xylose,xylose [6]; listed as XI-R,3.14 g/L and 3.85 g/L
same,xylose consumption versus vector control,xylose [7],more efficient at consuming xylose
same,cell density versus vector only control,xylose [8],grew to a higher cell density
same,ethanol production from xylose versus vector only control,xylose [8],produced more ethanol

# From US20110165660A1, “ENGINEERED MICROORGANISMS WITH ENHANCED FERMENTATION ACTIVITY” (VERDEZYNE, INC., priority 2009, published 2011)
